Data as given in PMC9482655 (2022).
Values belong to the binder of their own block, whether it stands above or below them.

Experiments:
[1] = target: IZUMO1 ectodomain, biotin-labelled, sensor-bound (human, UniProt Q8IYV9 22-292, biotin on free lysine residues (EZ link sulfo-NHS-LC-biotinylation kit, 1:1 protein to biotin ratio)); assay: BLI
[2] = target: JUNO ectodomain, biotin-labelled, sensor-bound (UniProt A6ND01 20-228, biotin on free lysine residues (EZ link sulfo-NHS-LC-biotinylation kit, 1:1 protein to biotin ratio)); assay: BLI

- Kd [1]: 14.2 nM
B1: JUNO ectodomain (BLI analyte; target protein of the pull-down) (domain or fragment)
chain: GDELLNICMNAKHHKRVPSPEDKLYEECIPWKDNACCTLTTSWEAHLDVSPLYNFSLFHCGLLMPGCRKHFIQAICFYECSPNLGPWIQPVGSLGWEVAPSGQGERVVNVPLCQEDCEEWWEDCRMSYTCKSNWRGGWDWSQGKNRCPKGAQCLPFSHYFPTPADLCEKTWSNSFKASPERRNSGRCLQKWFEPAQGNPNVAVARLFAS

- Kd [2]: 36.8 nM
B2: IZUMO1 ectodomain (BLI analyte) (domain or fragment)
chain: CVICDPSVVLALKSLEKDYLPGHLDAKHHKAMMERVENAVKDFQELSLNEDAYMGVVDEATLQKGSWSLLKDLKRITDSDVKGDLFVKELFWMLHLQKETFATYVARFQKEAYCPNKCGVMLQTLIWCKNCKKEVHACRKSYDCGERNVEVPQMEDMILDCELNWHQASEGLTDYSFYRVWGNNTETLVSKGKEATLTKPMVGPEDAGSYRCELGSVNSSPATIINFHVTVLPKMIKEEKPSPNIVTPGEATTESSISLQPLQPEKMLASR
